# Data reported in paper PMC6555819, “Comprehensive study of nuclear receptor DNA binding provides a revised framework for understanding receptor specificity”.
# Substitutions are numbered along the chain they refer to.
# B1: NRC3_random_hg19_13_o1 (dsDNA)
# DNA 1: GCCACATCTGTAATCCCAGCACTTTGGGAGGCCAAGGCGATTGACAGCGTAGAATGAAGG
# DNA 2: CCTTCATTCTACGCTGTCAATCGCCTTGGCCTCCCAAAGTGCTGGGATTACAGATGTGGC
# B2: NRC3_wobSeed30_DR1_C12T_o1 (dsDNA)
# DNA 1: GCACTAGCAGGTCAAGGGTCACTCAAGATTAGTCCGGCGATTGACAGCGTAGAATGAAGG
# DNA 2: CCTTCATTCTACGCTGTCAATCGCCGGACTAATCTTGAGTGACCCTTGACCTGCTAGTGC
# B3: NRC3_wobSeed97_DR4_T8A_o1 (dsDNA)
# DNA 1: GCCAAACAAGGTCACGAAAGGTCAAAGTCGAATGACGCGATTGACAGCGTAGAATGAAGG
# DNA 2: CCTTCATTCTACGCTGTCAATCGCGTCATTCGACTTTGACCTTTCGTGACCTTGTTTGGC
# B4: NRC3_wobSeed97_DR4_T8G_o1 (dsDNA)
# DNA 1: B3 DNA 1 with A8G
# DNA 2: B3 DNA 2 with T53C
# B5: NRC3_wobSeed46_DR1_G21A_o1 (dsDNA)
# DNA 1: GCTTACCAAGGTGAAAGGTCATTGATGCACGCCTTGGCGATTGACAGCGTAGAATGAAGG
# DNA 2: CCTTCATTCTACGCTGTCAATCGCCAAGGCGTGCATCAATGACCTTTCACCTTGGTAAGC
# B6: NRC3_wobSeed27_DR1_A12G_o1 (dsDNA)
# DNA 1: GCACTCGGAGGGCAAAGGTCAGAGCTACGCCAGTGAGCGATTGACAGCGTAGAATGAAGG
# DNA 2: CCTTCATTCTACGCTGTCAATCGCTCACTGGCGTAGCTCTGACCTTTGCCCTCCGAGTGC
# B7: NRC3_wobSeed32_DR1_A11G_o1 (dsDNA)
# DNA 1: GCTCTTGTAGGTCAAAGGTTAAGAAAGCCGAAGCCTGCGATTGACAGCGTAGAATGAAGG
# DNA 2: CCTTCATTCTACGCTGTCAATCGCAGGCTTCGGCTTTCTTAACCTTTGACCTACAAGAGC
# B8: NRC3_wobSeed31_DR1_A13C_o1 (dsDNA)
# DNA 1: GCTCATATAGGTCAAAGGTGAAAGTCGGTGTGGTAAGCGATTGACAGCGTAGAATGAAGG
# DNA 2: CCTTCATTCTACGCTGTCAATCGCTTACCACACCGACTTTCACCTTTGACCTATATGAGC
# B9: NRC3_wobSeed31_DR1_G20C_o1 (dsDNA)
# DNA 1: B8 DNA 1 with C13A, G20C
# DNA 2: B8 DNA 2 with C41G, G48T
# B10: NRC3_wobSeed42_DR1_C19G_o1 (dsDNA)
# DNA 1: GCTATACAGGGTCAAAGGGCAGAGTACGAATGTCGAGCGATTGACAGCGTAGAATGAAGG
# DNA 2: CCTTCATTCTACGCTGTCAATCGCTCGACATTCGTACTCTGCCCTTTGACCCTGTATAGC
# B11: NRC3_wobSeed121_DR5_C30T_o1 (dsDNA)
# DNA 1: GCCAAACTAGGTCACCGGAAGGTCAAAGTTCGCATGGCGATTGACAGCGTAGAATGAAGG
# DNA 2: CCTTCATTCTACGCTGTCAATCGCCATGCGAACTTTGACCTTCCGGTGACCTAGTTTGGC
# B12: NRC3_wobSeed43_DR1_A20C_o1 (dsDNA)
# DNA 1: GCCCAGACAGGTGAAAGGTCACTCAGTCTGGTACGCGCGATTGACAGCGTAGAATGAAGG
# DNA 2: CCTTCATTCTACGCTGTCAATCGCGCGTACCAGACTGAGTGACCTTTCACCTGTCTGGGC
# B13: NRC3_wobSeed73_DR3_T8A_o1 (dsDNA)
# DNA 1: GCCAAACAAGGTCACAGAGGTCAAAGTCCGTGCGTAGCGATTGACAGCGTAGAATGAAGG
# DNA 2: CCTTCATTCTACGCTGTCAATCGCTACGCACGGACTTTGACCTCTGTGACCTTGTTTGGC
# B14: NRC3_wobSeed36_DR1_T20C_o1 (dsDNA)
# DNA 1: GCCCGACTGGGGCAAAGGTCACCATACTCAGTACGAGCGATTGACAGCGTAGAATGAAGG
# DNA 2: CCTTCATTCTACGCTGTCAATCGCTCGTACTGAGTATGGTGACCTTTGCCCCAGTCGGGC
# B15: NRC3_random_hg19_6_o1 (dsDNA)
# DNA 1: GCACTCAGAGAGTTGAAGTGATTTGCCCAAGACCACGCGATTGACAGCGTAGAATGAAGG
# DNA 2: CCTTCATTCTACGCTGTCAATCGCGTGGTCTTGGGCAAATCACTTCAACTCTCTGAGTGC
# B16: NRC3_wobSeed38_DR1_T16G_o1 (dsDNA)
# DNA 1: GCCCTGCTAGGTCAAGGGTCAGCTAAAGCAGCTCGCGCGATTGACAGCGTAGAATGAAGG
# DNA 2: CCTTCATTCTACGCTGTCAATCGCGCGAGCTGCTTTAGCTGACCCTTGACCTAGCAGGGC
# B17: NRC3_wobSeed28_DR1_C7G_o1 (dsDNA)
# DNA 1: GCCCTAGTGGGCCAAAGGTCATTGATTCCAATGCTCGCGATTGACAGCGTAGAATGAAGG
# DNA 2: CCTTCATTCTACGCTGTCAATCGCGAGCATTGGAATCAATGACCTTTGGCCCACTAGGGC
# B18: NRC3_wobSeed138_DR5_C23T_o1 (dsDNA)
# DNA 1: GCGATACAGGGTCAGCTAGAGGTCAGAGTATGGAAAGCGATTGACAGCGTAGAATGAAGG
# DNA 2: CCTTCATTCTACGCTGTCAATCGCTTTCCATACTCTGACCTCTAGCTGACCCTGTATCGC
# B19: NRC3_random_hg19_307_o1 (dsDNA)
# DNA 1: GCATGTTAGAGCTCATGGAGAAGTGTCCTATGTGATGCGATTGACAGCGTAGAATGAAGG
# DNA 2: CCTTCATTCTACGCTGTCAATCGCATCACATAGGACACTTCTCCATGAGCTCTAACATGC
# Molecular target: RXRa (Homo sapiens, UniProt P19793)
# Assay: no ligand; PBM; 180 nM; PBS pH 7.4, 2% milk, 0.02% Triton X-100, 1 mM DTT, BSA, 0.4 mg/ml salmon testes DNA
# Conditions: tags: His cleaved; chain copies: 2; label: surface-attached array probe
# Sequence of RXRa (P19793 whole entry): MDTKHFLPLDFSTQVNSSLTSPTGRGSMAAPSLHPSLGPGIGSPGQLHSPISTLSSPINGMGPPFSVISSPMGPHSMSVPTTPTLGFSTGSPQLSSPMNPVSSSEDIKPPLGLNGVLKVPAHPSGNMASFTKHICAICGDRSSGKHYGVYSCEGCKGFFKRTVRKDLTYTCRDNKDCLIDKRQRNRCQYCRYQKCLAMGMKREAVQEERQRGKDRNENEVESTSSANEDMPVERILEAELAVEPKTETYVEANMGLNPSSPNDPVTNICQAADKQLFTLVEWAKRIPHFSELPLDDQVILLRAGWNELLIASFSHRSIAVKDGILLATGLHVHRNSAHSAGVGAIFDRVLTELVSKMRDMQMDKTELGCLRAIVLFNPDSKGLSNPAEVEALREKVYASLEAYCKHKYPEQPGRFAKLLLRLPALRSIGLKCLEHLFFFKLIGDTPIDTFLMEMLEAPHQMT
row,Binder,binding signal
1,B1,0.22 PBM z-score against 500 random probes
2,B2,8.53 PBM z-score against 500 random probes
3,B3,9.58 PBM z-score against 500 random probes
4,B4,9.84 PBM z-score against 500 random probes
5,B5,8.42 PBM z-score against 500 random probes
6,B6,8.52 PBM z-score against 500 random probes
7,B7,9.29 PBM z-score against 500 random probes
8,B8,8.68 PBM z-score against 500 random probes
9,B9,8.7 PBM z-score against 500 random probes
10,B10,8.22 PBM z-score against 500 random probes
11,B11,8.07 PBM z-score against 500 random probes
12,B12,8.23 PBM z-score against 500 random probes
13,B13,10.1 PBM z-score against 500 random probes
14,B14,8.25 PBM z-score against 500 random probes

# Molecular target: PPARg:RXRa (Homo sapiens, UniProt P37231;P19793 full;full)
# Assay: no ligand; PBM; 180 nM : 90 nM RXRa; PBS pH 7.4, 2% milk, 0.02% Triton X-100, 1 mM DTT, BSA, 0.4 mg/ml salmon testes DNA
# Conditions: tags: His kept;His cleaved; copies: 1;1; label: surface-attached array probe
# Sequence of PPARg:RXRa (P37231 29-505, chain 1 of 2): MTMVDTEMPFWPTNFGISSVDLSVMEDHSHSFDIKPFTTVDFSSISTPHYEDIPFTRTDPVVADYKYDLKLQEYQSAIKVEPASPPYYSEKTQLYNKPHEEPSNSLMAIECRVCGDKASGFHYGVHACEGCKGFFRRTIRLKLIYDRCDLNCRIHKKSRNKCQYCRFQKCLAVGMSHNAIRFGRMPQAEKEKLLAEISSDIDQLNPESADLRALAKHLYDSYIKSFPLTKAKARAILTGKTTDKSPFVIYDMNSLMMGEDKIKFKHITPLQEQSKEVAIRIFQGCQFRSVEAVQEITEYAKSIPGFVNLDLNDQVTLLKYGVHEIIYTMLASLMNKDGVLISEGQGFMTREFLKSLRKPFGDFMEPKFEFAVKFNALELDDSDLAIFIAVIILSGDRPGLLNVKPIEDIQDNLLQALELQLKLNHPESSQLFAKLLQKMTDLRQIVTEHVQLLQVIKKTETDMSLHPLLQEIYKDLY
# Sequence of PPARg:RXRa (P19793 whole entry, chain 2 of 2): as the sequence (P19793 whole entry) above
row,Binder,binding signal
1,B1,0.3 PBM z-score against 500 random probes
2,B2,11.2 PBM z-score against 500 random probes
3,B15,0.15 PBM z-score against 500 random probes
4,B5,10.9 PBM z-score against 500 random probes
5,B16,10.5 PBM z-score against 500 random probes
6,B6,9.6 PBM z-score against 500 random probes
7,B7,12.7 PBM z-score against 500 random probes
8,B8,11.9 PBM z-score against 500 random probes
9,B9,11.8 PBM z-score against 500 random probes
10,B17,13.1 PBM z-score against 500 random probes
11,B18,5.41 PBM z-score against 500 random probes
12,B10,9.96 PBM z-score against 500 random probes
13,B11,10.6 PBM z-score against 500 random probes
14,B12,10.4 PBM z-score against 500 random probes
15,B14,12.5 PBM z-score against 500 random probes
16,B19,0.17 PBM z-score against 500 random probes

# Molecular target: RARb:RXRa (Homo sapiens, UniProt P10826;P19793 full;full)
# Assay: no ligand; PBM; 270 nM : 90 nM RXRa; PBS pH 7.4, 2% milk, 0.02% Triton X-100, 1 mM DTT, BSA, 0.4 mg/ml salmon testes DNA
# Conditions: tags: His kept;His cleaved; copies: 1;1; label: surface-attached array probe
# Procedure, shortened: (§1)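 Custom Agilent 4×180K protein-binding microarrays carried double-stranded probes. Their 34-nt variable regions held direct-repeat seeds, single-nucleotide variants, half-site ablations and random human genomic background sequences. Arrays were incubated 1 h with ligand-free nuclear receptor dimers in PBS pH 7.4, 2% milk, 0.02% Triton X-100, 1 mM DTT, 0.2 mg/mL BSA and 0.4 mg/ml salmon testes DNA. Antibodies against each partner (one per run) detected binding, and scanned fluorescence was regression-normalized. Binding z-scores use random background probes as reference.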
# Sequence of RARb:RXRa (P10826 whole entry, chain 1 of 2): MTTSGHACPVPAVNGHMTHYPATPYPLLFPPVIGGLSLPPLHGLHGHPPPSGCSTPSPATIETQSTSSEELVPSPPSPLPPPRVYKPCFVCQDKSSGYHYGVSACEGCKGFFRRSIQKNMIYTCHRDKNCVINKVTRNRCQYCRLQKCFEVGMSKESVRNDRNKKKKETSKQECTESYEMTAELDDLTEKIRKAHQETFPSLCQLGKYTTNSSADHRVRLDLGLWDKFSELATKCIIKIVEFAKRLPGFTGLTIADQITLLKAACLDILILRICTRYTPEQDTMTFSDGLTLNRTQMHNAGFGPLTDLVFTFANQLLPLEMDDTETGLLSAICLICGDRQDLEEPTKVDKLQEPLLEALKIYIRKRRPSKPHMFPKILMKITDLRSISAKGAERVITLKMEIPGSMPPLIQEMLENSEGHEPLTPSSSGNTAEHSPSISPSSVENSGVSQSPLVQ
# Sequence of RARb:RXRa (P19793 whole entry, chain 2 of 2): as the sequence (P19793 whole entry) above
row,Binder,binding signal
1,B3,6.14 PBM z-score against 500 random probes
2,B4,6.03 PBM z-score against 500 random probes
3,B13,6.08 PBM z-score against 500 random probes

# Molecular target: VDR:RXRa (Homo sapiens, UniProt P11473;P19793 full;full)
# Assay: as above
# Conditions: tags: His kept;His cleaved; copies: 1;1; label: surface-attached array probe
# Procedure, shortened: as §1
row,Binder,binding signal
1,B15,-0.28 PBM z-score against 500 random probes
2,B3,7.94 PBM z-score against 500 random probes
3,B4,7.51 PBM z-score against 500 random probes
4,B13,8.7 PBM z-score against 500 random probes

# Molecular target: LXRa:RXRa (Homo sapiens, UniProt Q13133;P19793 full;full)
# Assay: as above
# Conditions: tags: His kept;His cleaved; copies: 1;1; label: surface-attached array probe
# Procedure, shortened: as §1
# Sequence of LXRa:RXRa (Q13133 whole entry, chain 1 of 2): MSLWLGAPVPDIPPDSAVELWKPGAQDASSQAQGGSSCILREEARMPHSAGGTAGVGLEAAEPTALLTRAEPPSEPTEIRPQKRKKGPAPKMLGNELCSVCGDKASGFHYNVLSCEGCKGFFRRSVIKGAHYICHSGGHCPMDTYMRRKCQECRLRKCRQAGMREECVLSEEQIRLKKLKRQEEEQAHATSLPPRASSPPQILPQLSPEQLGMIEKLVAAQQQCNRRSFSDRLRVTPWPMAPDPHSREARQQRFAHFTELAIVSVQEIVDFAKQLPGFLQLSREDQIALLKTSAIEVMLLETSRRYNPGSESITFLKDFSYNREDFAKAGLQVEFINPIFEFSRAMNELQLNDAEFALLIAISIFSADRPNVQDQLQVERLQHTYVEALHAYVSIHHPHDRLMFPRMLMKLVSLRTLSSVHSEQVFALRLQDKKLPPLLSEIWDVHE
# Sequence of LXRa:RXRa (P19793 whole entry, chain 2 of 2): as the sequence (P19793 whole entry) above
row,Binder,binding signal
1,B3,8.85 PBM z-score against 500 random probes
2,B4,8.87 PBM z-score against 500 random probes
3,B13,7.79 PBM z-score against 500 random probes

# Molecular target: PPARa:RXRa (Homo sapiens, UniProt Q07869;P19793 full;full)
# Assay: as above
# Conditions: tags: GST kept;His cleaved; copies: 1;1; label: surface-attached array probe
# Procedure, shortened: as §1
# Sequence of PPARa:RXRa (Q07869 whole entry, chain 1 of 2): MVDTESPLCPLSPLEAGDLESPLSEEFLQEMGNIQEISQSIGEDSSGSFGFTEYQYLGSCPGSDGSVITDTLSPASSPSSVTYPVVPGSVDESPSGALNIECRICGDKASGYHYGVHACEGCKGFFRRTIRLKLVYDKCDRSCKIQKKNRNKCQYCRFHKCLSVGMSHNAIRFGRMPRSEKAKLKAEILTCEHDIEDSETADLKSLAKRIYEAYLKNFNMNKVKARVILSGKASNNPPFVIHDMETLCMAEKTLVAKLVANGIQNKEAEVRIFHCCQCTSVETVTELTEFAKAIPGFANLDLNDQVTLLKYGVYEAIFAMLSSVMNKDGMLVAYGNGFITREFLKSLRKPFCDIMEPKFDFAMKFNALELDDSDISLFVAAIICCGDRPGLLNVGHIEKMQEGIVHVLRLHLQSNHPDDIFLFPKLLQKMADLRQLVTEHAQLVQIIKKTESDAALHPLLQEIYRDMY
# Sequence of PPARa:RXRa (P19793 whole entry, chain 2 of 2): as the sequence (P19793 whole entry) above
row,Binder,binding signal
1,B3,7 PBM z-score against 500 random probes
2,B4,6.96 PBM z-score against 500 random probes
3,B5,6.54 PBM z-score against 500 random probes
4,B7,7.1 PBM z-score against 500 random probes
5,B8,6.9 PBM z-score against 500 random probes
6,B9,6.94 PBM z-score against 500 random probes
7,B13,6.92 PBM z-score against 500 random probes
8,B14,6.53 PBM z-score against 500 random probes

# Molecular target: LXRb:RXRa (Homo sapiens, UniProt P55055;P19793 full;full)
# Assay: as above
# Conditions: tags: His kept;His cleaved; copies: 1;1; label: surface-attached array probe
# Procedure, shortened: as §1
# Sequence of LXRb:RXRa (P55055 whole entry, chain 1 of 2): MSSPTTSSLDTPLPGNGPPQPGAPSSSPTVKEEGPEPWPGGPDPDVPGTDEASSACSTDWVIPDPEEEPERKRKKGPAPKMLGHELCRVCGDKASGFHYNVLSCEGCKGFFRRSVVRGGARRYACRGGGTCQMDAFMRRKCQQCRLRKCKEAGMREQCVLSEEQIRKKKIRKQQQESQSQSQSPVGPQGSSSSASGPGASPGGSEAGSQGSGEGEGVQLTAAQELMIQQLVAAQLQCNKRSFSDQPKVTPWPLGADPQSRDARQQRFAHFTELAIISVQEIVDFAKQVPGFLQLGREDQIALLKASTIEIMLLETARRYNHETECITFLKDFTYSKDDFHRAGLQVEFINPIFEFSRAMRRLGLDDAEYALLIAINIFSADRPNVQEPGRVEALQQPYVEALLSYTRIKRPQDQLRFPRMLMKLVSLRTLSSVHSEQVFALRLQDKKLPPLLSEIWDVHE
# Sequence of LXRb:RXRa (P19793 whole entry, chain 2 of 2): as the sequence (P19793 whole entry) above
row,Binder,binding signal
1,B3,8.12 PBM z-score against 500 random probes
2,B4,7.93 PBM z-score against 500 random probes
3,B13,7.37 PBM z-score against 500 random probes
4,B19,-0.8 PBM z-score against 500 random probes

# Molecular target: FXR:RXRa (Homo sapiens, UniProt Q96RI1;P19793 full;full)
# Assay: as above
# Conditions: tags: His kept;His cleaved; copies: 1;1; label: surface-attached array probe
# Procedure, shortened: as §1
# Sequence of FXR:RXRa (Q96RI1 whole entry, chain 1 of 2): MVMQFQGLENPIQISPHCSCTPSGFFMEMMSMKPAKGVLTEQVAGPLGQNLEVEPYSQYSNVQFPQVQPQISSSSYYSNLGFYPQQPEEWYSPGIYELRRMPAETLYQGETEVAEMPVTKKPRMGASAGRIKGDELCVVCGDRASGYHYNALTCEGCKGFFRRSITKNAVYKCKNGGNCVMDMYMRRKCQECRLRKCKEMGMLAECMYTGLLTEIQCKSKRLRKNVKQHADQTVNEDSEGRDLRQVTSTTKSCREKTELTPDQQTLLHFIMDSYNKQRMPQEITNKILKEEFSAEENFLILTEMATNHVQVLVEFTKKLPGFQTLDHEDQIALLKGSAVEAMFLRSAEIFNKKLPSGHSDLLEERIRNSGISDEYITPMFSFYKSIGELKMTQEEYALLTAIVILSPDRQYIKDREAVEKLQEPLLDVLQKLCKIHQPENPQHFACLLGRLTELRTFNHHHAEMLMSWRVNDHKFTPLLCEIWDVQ
# Sequence of FXR:RXRa (P19793 whole entry, chain 2 of 2): as the sequence (P19793 whole entry) above
row,Binder,binding signal
1,B3,8.87 PBM z-score against 500 random probes
2,B4,9.24 PBM z-score against 500 random probes
3,B13,8.84 PBM z-score against 500 random probes

# Molecular target: PXR:RXRa (Homo sapiens, UniProt O75469;P19793 full;full)
# Assay: as above
# Conditions: tags: His kept;His cleaved; copies: 1;1; label: surface-attached array probe
# Procedure, shortened: as §1
row,Binder,binding signal
1,B3,7.87 PBM z-score against 500 random probes
2,B4,7.9 PBM z-score against 500 random probes
3,B13,7.48 PBM z-score against 500 random probes

# Molecular target: RARa:RXRa (Homo sapiens, UniProt P10276;P19793 full;full)
# Assay: as above
# Conditions: tags: His kept;His cleaved; copies: 1;1; label: surface-attached array probe
# Procedure, shortened: as §1
# Sequence of RARa:RXRa (P10276 whole entry, chain 1 of 2): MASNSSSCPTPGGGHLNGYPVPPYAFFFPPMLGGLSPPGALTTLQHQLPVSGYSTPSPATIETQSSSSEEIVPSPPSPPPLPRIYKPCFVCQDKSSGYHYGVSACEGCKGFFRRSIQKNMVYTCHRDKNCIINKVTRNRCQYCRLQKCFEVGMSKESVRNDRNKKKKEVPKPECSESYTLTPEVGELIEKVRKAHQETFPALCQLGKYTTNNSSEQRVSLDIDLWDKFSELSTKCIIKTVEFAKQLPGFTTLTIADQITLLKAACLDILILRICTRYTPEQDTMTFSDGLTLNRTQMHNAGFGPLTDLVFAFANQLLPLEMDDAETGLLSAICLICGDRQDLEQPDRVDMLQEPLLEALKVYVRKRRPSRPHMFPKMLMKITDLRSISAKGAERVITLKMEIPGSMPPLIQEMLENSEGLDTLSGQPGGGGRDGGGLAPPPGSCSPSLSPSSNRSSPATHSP
# Sequence of RARa:RXRa (P19793 whole entry, chain 2 of 2): as the sequence (P19793 whole entry) above
row,Binder,binding signal
1,B1,0.01 PBM z-score against 500 random probes
2,B2,8.23 PBM z-score against 500 random probes
3,B15,0.23 PBM z-score against 500 random probes
4,B3,8.72 PBM z-score against 500 random probes
5,B4,8.33 PBM z-score against 500 random probes
6,B5,8.37 PBM z-score against 500 random probes
7,B16,7.26 PBM z-score against 500 random probes
8,B6,7.48 PBM z-score against 500 random probes
9,B7,8.25 PBM z-score against 500 random probes
10,B8,7.84 PBM z-score against 500 random probes
11,B9,7.77 PBM z-score against 500 random probes
12,B17,7.08 PBM z-score against 500 random probes
13,B18,7.75 PBM z-score against 500 random probes
14,B10,7.26 PBM z-score against 500 random probes
15,B11,8.54 PBM z-score against 500 random probes
16,B12,7.65 PBM z-score against 500 random probes
17,B13,8.63 PBM z-score against 500 random probes
18,B14,7.41 PBM z-score against 500 random probes
19,B19,-0.77 PBM z-score against 500 random probes

# Molecular target: RARg:RXRa (Homo sapiens, UniProt P13631;P19793 full;full)
# Assay: as above
# Conditions: tags: His kept;His cleaved; copies: 1;1; label: surface-attached array probe
# Procedure, shortened: as §1
# Sequence of RARg:RXRa (P13631 whole entry, chain 1 of 2): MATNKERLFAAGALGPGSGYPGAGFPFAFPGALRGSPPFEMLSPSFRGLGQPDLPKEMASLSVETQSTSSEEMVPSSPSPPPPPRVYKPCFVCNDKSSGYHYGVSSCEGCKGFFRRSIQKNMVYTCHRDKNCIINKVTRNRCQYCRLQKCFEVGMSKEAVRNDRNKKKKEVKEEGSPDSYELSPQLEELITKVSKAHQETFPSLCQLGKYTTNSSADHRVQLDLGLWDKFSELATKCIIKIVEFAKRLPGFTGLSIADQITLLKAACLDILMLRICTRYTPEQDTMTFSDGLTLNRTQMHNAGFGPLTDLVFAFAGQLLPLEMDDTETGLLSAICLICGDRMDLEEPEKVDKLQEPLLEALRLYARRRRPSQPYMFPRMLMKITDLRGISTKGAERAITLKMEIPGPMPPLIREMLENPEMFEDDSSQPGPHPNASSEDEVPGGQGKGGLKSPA
# Sequence of RARg:RXRa (P19793 whole entry, chain 2 of 2): as the sequence (P19793 whole entry) above
row,Binder,binding signal
1,B3,8.87 PBM z-score against 500 random probes
2,B4,8.98 PBM z-score against 500 random probes
3,B18,9.04 PBM z-score against 500 random probes
4,B13,8.47 PBM z-score against 500 random probes
